From PMC11054894, “Sortase-Modified Cholera Toxoids Show Specific Golgi Localization” (Toxins, 2024)

What was measured:
Test in all cases: SDS-PAGE without boiling
[1] = target: FITC-labeled cholera toxin B (sortase-labeled GGG-CTB) (UniProt P01556)
[2] = target: cholera toxin B with an N-terminal triglycine extension (UniProt P01556)
[3] = target: the molecule itself

FITC-labeled cholera toxin B (sortase-labeled GGG-CTB) (from UniProt P01556 22-124) (natural protein)
stoichiometry N [1]: 5

cholera toxin B with an N-terminal triglycine extension (from UniProt P01556 22-124) (natural protein)
stoichiometry N [2]: 5

B1: cholera toxin B-subunit (natural protein)
chain: TPQNITDLCAEYHNTQIYTLNDKIFSYTESLAGKREMAIITFKNGAIFQVEVPGSQHIDSQKKAIERMKDTLRIAYLTEAKVEKLCVWNNKTPHAIAAISMAN
notes: also called B5; B5 pentamer
stoichiometry N [3]: 5
